Measurements reported in patent US20180371066A1 (C2N DIAGNOSTICS, published 2018).
Changes are numbered by the printed parent chain.

B1: VH3/VK2 humanized anti-tau antibody (antibody, human IgG4 S228P, kappa, V domains shown)
VH: EVQVVESGGGLVQPGGSLKLSCVVSGFTFSNYWVNWVRQAPGKGLEWVAQIRLKSDNYATHYEESVKGRFTISRDDSKNSVYLQMNSLRAEDTAIYYCTNWEDYWGQGTTVTVSS
VL: DIVLTQSPDSLAVSLGERATISCRASQSVSTSRYSYIHWYQQKPGQPPKLLIKYASNLESGVPSRFSGSGSGTDFTLNIHPLEPEDFATYYCHHSWEIPLTFGQGTKLEIKR
notes: Humanized variant of HJ8.5
B2: VH1/VK3 humanized anti-tau antibody (antibody, human IgG4 S228P, kappa)
heavy: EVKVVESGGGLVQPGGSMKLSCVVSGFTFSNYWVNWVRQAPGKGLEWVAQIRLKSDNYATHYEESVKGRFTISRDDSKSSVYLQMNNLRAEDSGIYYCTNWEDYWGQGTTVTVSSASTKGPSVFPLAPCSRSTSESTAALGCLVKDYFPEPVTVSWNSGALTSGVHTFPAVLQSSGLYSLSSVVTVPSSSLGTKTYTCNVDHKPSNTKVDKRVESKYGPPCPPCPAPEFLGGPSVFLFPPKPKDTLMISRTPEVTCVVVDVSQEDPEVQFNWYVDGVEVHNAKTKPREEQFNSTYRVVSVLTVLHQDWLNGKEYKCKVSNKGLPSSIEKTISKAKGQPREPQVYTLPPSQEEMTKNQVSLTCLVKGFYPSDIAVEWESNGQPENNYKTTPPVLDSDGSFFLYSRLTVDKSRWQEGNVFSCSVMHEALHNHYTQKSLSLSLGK
light: DIVLTQSPDSLAVSLGERATISCRASQSVSTSRYSYIHWYQQKPGQPPKLLIKYASNLESGVPSRFSGSGSGTDFTLTISSLQPEDFATYYCHHSWEIPLTFGQGTKLEIKRTVAAPSVFIFPPSDEQLKSGTASVVCLLNNFYPREAKVQWKVDNALQSGNSQESVTEQDSKDSTYSLSSTLTLSKADYEKHKVYACEVTHQGLSSPVTKSFNRGEC
notes: Humanized variant of HJ8.5
B3: VH2/VK2 humanized anti-tau antibody (antibody, human IgG4 S228P, kappa, V domains shown)
VH: B1 VH with Q3K, N79S, A94G
VL: B1 VL
notes: Humanized variant of HJ8.5
B4: VH2/VK1 (antibody, human IgG4 S228P, kappa, V domains shown)
VH: B1 VH with Q3K, N79S, A94G
VL: B1 VL with P84E
notes: humanized HJ8.5 variant, combination of VH2 and VK1
B5: VH3/VK3 humanized anti-tau antibody (antibody, human IgG4 S228P, kappa)
heavy: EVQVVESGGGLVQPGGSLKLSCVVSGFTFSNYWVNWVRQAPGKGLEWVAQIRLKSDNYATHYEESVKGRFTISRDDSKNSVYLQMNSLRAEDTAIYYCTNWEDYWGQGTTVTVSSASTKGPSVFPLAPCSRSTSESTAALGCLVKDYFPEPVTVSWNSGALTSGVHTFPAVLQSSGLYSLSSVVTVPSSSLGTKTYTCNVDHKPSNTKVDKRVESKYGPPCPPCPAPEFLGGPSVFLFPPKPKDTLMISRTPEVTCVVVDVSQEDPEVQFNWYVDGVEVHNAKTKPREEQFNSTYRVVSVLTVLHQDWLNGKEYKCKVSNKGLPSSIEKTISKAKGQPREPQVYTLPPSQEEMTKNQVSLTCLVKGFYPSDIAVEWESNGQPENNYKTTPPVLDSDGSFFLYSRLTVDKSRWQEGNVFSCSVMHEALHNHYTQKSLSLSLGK
light: B2 light
notes: Humanized variant of HJ8.5
B6: VH2/VK4 (antibody, human IgG4 S228P, kappa)
heavy chain: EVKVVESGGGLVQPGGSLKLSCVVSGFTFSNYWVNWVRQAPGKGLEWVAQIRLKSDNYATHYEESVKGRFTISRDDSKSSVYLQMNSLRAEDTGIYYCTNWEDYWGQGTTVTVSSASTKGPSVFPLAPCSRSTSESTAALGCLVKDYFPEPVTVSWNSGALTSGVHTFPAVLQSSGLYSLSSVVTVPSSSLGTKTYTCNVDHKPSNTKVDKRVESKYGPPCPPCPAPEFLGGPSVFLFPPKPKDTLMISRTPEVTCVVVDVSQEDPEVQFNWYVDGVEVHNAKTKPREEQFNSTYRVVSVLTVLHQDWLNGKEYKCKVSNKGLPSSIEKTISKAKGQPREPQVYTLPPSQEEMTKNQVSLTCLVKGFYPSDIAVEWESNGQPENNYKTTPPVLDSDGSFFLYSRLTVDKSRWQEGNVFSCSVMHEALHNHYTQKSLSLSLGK
light chain: B2 light with L4M
notes: humanized HJ8.5 variant, combination of VH2 and VK4
B7: VH1/VK4 (antibody, human IgG4 S228P, kappa)
heavy chain: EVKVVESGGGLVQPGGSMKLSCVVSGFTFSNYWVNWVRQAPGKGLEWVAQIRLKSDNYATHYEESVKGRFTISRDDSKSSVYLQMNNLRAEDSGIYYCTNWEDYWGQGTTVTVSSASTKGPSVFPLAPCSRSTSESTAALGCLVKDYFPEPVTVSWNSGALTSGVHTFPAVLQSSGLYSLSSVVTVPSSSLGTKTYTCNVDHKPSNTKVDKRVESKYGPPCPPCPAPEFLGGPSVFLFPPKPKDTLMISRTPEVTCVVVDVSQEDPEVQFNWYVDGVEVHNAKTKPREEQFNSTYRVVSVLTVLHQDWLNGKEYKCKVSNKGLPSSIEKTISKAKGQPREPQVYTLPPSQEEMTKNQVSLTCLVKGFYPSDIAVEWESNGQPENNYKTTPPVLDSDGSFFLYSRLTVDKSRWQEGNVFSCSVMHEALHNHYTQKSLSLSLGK
light chain: B2 light with L4M
notes: humanized HJ8.5 variant, combination of VH1 and VK4
B8: VH3/VK1 (antibody, human IgG4 S228P, kappa, V domains shown)
VH: B1 VH
VL: B1 VL with P84E
notes: humanized HJ8.5 variant, combination of VH3 and VK1
B9: VH3/VK4 (antibody, human IgG4 S228P, kappa)
heavy chain: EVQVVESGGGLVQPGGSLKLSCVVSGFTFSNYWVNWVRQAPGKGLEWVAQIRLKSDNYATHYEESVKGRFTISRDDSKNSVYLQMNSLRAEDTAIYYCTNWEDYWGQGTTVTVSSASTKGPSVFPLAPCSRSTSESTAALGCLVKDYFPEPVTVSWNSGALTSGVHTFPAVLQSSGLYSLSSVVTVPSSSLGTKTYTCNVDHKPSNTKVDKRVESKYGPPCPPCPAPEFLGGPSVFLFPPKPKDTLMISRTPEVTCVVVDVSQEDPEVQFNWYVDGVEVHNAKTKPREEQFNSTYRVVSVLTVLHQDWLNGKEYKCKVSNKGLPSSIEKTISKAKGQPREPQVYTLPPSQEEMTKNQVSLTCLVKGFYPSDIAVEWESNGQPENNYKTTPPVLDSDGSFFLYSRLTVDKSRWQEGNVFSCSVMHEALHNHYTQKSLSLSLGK
light chain: B2 light with L4M
notes: humanized HJ8.5 variant, combination of VH3 and VK4
B10: VH1/VK1 (antibody, human IgG4 S228P, kappa, V domains shown)
VH: B1 VH with Q3K, L18M, N79S, S87N, T93S, A94G
VL: B1 VL with P84E
notes: humanized HJ8.5 variant, combination of VH1 and VK1
B11: VH4/VK3 (antibody, human IgG4 S228P, kappa, V domains shown)
VH: B1 VH with V4L, V81L
VL: B1 VL with N78T, H80S, P81S, E83Q
notes: humanized HJ8.5 variant, combination of VH4 and VK3
B12: VH2/VK3 humanized anti-tau antibody (antibody, human IgG4 S228P, kappa)
heavy: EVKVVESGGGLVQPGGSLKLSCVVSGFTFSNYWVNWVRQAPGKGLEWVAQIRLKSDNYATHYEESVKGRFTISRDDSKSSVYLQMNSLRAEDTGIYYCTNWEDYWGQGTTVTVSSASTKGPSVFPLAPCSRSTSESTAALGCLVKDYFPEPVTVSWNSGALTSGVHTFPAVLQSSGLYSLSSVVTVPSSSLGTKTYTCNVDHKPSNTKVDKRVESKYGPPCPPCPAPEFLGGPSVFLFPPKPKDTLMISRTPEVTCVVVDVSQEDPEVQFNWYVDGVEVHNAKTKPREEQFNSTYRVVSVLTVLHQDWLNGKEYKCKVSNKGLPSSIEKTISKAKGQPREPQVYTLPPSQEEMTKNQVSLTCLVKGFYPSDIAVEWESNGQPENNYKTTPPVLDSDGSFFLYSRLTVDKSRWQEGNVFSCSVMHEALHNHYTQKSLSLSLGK
light: B2 light
notes: Humanized variant of HJ8.5

Molecular target: T1, recombinant human Tau-412 protein (human, UniProt P10636-7 1-412)
T1 construct: Analyte of the SPR study; also called human tau (1N4R, 412 amino acids)
Assay: SPR Biacore T200, Protein A capture, mean of the VH3/VK2 runs
Procedure: (§1) Kinetic data was obtained at a flow rate of 40 μL/min to minimize any potential mass transfer effects. Two repeats of the blank (no antigen) and the 2.5 nM concentration of the analyte were programmed into the kinetic run in order to check the stability of both the surface and analyte over the kinetic cycles. For the initial kinetic runs, 2-fold dilutions of Tau-412 from 40 nM to 0.156 nM were run. For kinetic analysis and on subsequent runs, an analyte range of 20 nM to 0.625 nM was selected. This range covered multiple analyte concentrations both above and below the reported KD.
(§2) The association phase was monitored for 500 seconds to allow some of the higher concentrations of analyte to reach steady state. In order to observe a sufficient signal decrease (>10%) during the dissociation phase of the kinetic cycle, dissociation was measured for 1200 seconds. As discussed in Section 5, the Fcs were allowed to stabilize for 600 seconds after each regeneration step. The signal from the reference channel Fc1 was subtracted from that of Fc2, Fc3 and Fc4.
(§3) The kinetic parameters for the interaction of Tau-412 with the 7 mAbs as measured using the Protein A capture system on the Biacore T200 are shown in Table F-2. To correct for differences in the capture level of the antibody between each binding cycle, a local Rₘₐₓ parameter was used in the 1-to-1 binding model. Kinetic analysis was performed in three independent runs using fresh preparations of Tau-412 and antibody. Run 1 and runs 2+3 used different vials of the antigen Tau-412; therefore the reported errors associated with the mean response probably represent variation in preparation of the analyte and differences in assay set-up and run. From run 1 to runs 2+3, the amount of antibody injected was adjusted to try to get closer to the target 300 RU capture levels.
Target sequence in this assay (P10636 other isoform, or with tags, fused parts or gaps limits assumed): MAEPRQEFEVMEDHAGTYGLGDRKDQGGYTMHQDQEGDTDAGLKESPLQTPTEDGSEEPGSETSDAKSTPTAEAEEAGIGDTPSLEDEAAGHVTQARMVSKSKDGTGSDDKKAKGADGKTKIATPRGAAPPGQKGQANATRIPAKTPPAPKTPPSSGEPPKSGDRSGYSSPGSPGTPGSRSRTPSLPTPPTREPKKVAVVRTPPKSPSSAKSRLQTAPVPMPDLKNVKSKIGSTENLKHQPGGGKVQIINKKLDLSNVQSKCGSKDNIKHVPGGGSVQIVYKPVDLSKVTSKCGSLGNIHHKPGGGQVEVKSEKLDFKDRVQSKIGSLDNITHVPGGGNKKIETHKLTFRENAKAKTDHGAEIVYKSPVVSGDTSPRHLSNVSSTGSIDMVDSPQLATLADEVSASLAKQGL

Kd | koff | kon | Binder
1.88 nM | 0.000515 s⁻¹ | 276000 M⁻¹ s⁻¹ | B1

Molecular target: T1, recombinant human Tau-412 protein
Assay: SPR Biacore T200, Protein A capture, mean of the VH1/VK3 runs
Procedure: as §1, §2, §3
Target sequence in this assay (P10636 other isoform, or with tags, fused parts or gaps limits assumed): as above

Kd | koff | kon | Binder
2.09 nM | 0.000599 s⁻¹ | 287000 M⁻¹ s⁻¹ | B2

Molecular target: T2, human tau (human, UniProt P10636 2-60)
T2 construct: also called soluble human tau; human tau protein
Assay: competition ELISA on plate-coated human tau against biotinylated HJ8.5; IC50 normalised to chimeric HJ8.5; column External

T2 sequence (P10636 2-60 limits assumed): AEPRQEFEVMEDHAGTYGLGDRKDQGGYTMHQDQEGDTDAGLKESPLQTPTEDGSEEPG

IC50 (Relative to Chimera) | Binder
1.12 relative to Chimera | B3
1.02 relative to Chimera | B4
0.94 relative to Chimera | B1
0.93 relative to Chimera | B5
1.37 relative to Chimera | B6
1.41 relative to Chimera | B7
1.04 relative to Chimera | B8
1.51 relative to Chimera | B9
0.84 relative to Chimera | B10
1.31 relative to Chimera | B11
0.94 relative to Chimera | B12

Molecular target: T2, human tau
Assay: competition ELISA on plate-coated human tau against biotinylated HJ8.5; IC50 normalised to chimeric HJ8.5; column C2N Run 1

IC50 (Relative to Chimera) | Binder
1.37 relative to Chimera | B3
1.43 relative to Chimera | B4
0.81 relative to Chimera | B1
0.84 relative to Chimera | B5
1.36 relative to Chimera | B6
2.05 relative to Chimera | B7
1.16 relative to Chimera | B8
0.89 relative to Chimera | B9
1.49 relative to Chimera | B10
1.79 relative to Chimera | B11
1.17 relative to Chimera | B12

Molecular target: T1, recombinant human Tau-412 protein
Assay: SPR Biacore T200, Protein A capture, mean of the VH2/VK3 runs
Procedure: as §1, §2, §3
Target sequence in this assay (P10636 other isoform, or with tags, fused parts or gaps limits assumed): as the sequence (P10636 other isoform, or with tags, fused parts or gaps limits assumed) above

Kd | koff | kon | Binder
2.13 nM | 0.000593 s⁻¹ | 280000 M⁻¹ s⁻¹ | B12

Molecular target: T1, recombinant human Tau-412 protein
Assay: SPR Biacore T200, Protein A capture, mean of the VH3/VK3 runs
Procedure: as §1, §2, §3

Kd | koff | kon | Binder
1.92 nM | 0.000507 s⁻¹ | 265000 M⁻¹ s⁻¹ | B5

Molecular target: T1, recombinant human Tau-412 protein
Assay: SPR Biacore T200, mAb captured on Protein A, Tau-412 analyte, 1-to-1 model, chip A11/2
Procedure: as §1, §2, §3

Kd | koff | kon | Binder
2.06 nM | 0.000587 s⁻¹ | 284000 M⁻¹ s⁻¹ | B3
1.67 nM | 0.000485 s⁻¹ | 290000 M⁻¹ s⁻¹ | B1
1.94 nM | 0.000572 s⁻¹ | 295000 M⁻¹ s⁻¹ | B2
1.65 nM | 0.000454 s⁻¹ | 276000 M⁻¹ s⁻¹ | B5
1.83 nM | 0.000533 s⁻¹ | 292000 M⁻¹ s⁻¹ | B12

Molecular target: T2, human tau
Assay: competition ELISA on plate-coated human tau against biotinylated HJ8.5; IC50 normalised to chimeric HJ8.5; column C2N Run 2

IC50 (Relative to Chimera) | Binder
0.85 relative to Chimera | B3
1.02 relative to Chimera | B4
1.28 relative to Chimera | B1
1.34 relative to Chimera | B5
1.03 relative to Chimera | B6
1.02 relative to Chimera | B7
1.42 relative to Chimera | B8
1.22 relative to Chimera | B9
1.11 relative to Chimera | B10
1.9 relative to Chimera | B11
0.97 relative to Chimera | B12

Molecular target: T1, recombinant human Tau-412 protein
Assay: SPR Biacore T200, mAb captured on Protein A, Tau-412 analyte, 1-to-1 model, chip A11/1
Procedure: as §1, §2, §3

Kd | koff | kon | Binder
2.4 nM | 0.000628 s⁻¹ | 262000 M⁻¹ s⁻¹ | B3
2.08 nM | 0.000546 s⁻¹ | 262000 M⁻¹ s⁻¹ | B1
2.24 nM | 0.000626 s⁻¹ | 280000 M⁻¹ s⁻¹ | B2
2.2 nM | 0.000559 s⁻¹ | 254000 M⁻¹ s⁻¹ | B5
2.44 nM | 0.000653 s⁻¹ | 268000 M⁻¹ s⁻¹ | B12

Molecular target: T1, recombinant human Tau-412 protein
Assay: SPR Biacore T200, Protein A capture, mean of the VH2/VK2 runs
Procedure: as §1, §2, §3
Target sequence in this assay (P10636 other isoform, or with tags, fused parts or gaps limits assumed): as above

Kd | koff | kon | Binder
2.23 nM | 0.000608 s⁻¹ | 273000 M⁻¹ s⁻¹ | B3
